B1: dMBD-likeΔ: shorter Drosophila MBD-like isoform, product of the 842 base mRNA (SEQ ID NO:15) (protein)
chain: MQMNPSVTIERKRVDCSVLPKGWQRDEVRKSGSSANNNASSNNNSSATASSNNNNNKVDVFYYSRALRTDVSLVPPIRQTASIFKQPVTVIRNHKQDPAKAKNEPKHGTREKPKQLFWEKRLERLRACHDSGEELDDISLPKTIRTVGPNVNEQTVLQSVATALHMLNAGVHGQSSTKADLTKNAMAFMNPEQPLMHAVIISEDDIRKQEDRVGVARRKLQDALKT
B2: dMBD-like: Drosophila methyl CpG binding domain protein homolog, product of the 1115 base mRNA (SEQ ID NO:14) (protein)
chain: MQMNPSVTIERKRVDCSVLPKGWQRDEVRKSGSSANNNASSNNNSSATASSNNNNNKVDVFYYSPTGKRAEGKPQDIAIPDFQPGKMPHCALPSPSISLYRCSAMPLPIASGGGNGATSGSAANALKRKFARSQGGNAAGAAGAAPPAATASSAATATAASASPSTANRQQQQIELSRALRTDVSLVPPIRQTASIFKQPVTVIRNHKQDPAKAKNEPKHGTREKPKQLFWEKRLERLRACHDSGEELDDISLPKTIRTVGPNVNEQTVLQSVATALHMLNAGVHGQSSTKADLTKNAMAFMNPEQPLMHAVIISEDDIRKQEDRVGVARRKLQDALKT

Tests used:
[1] = test system: G5DE5tkLuc reporter in S2 cells; test: Effect of Trichostatin-A on Gal4-tethered repression; format: cell-based, Drosophila; conditions: TSA 100 nM and 400 nM, 24 h before harvest
Protocol: (§1) Drosophila S2 cells were grown in Schneider's medium (Sigma) at 27° C. containing 10% FBS and penicillin/streptomycin. Cells were transfected using the Superfect reagent (Qiagen) following the manufacturer's directions. Transfection assays included 1.5 μg of either the pG5DE5tkLuc reporter or the p-37tkRLuc internal control, essentially as described in Chen et al. (1998) Mol Cell Biol 18:7259-7268. The Gal4 DNA binding domain constructs, pACTIN-SV-Gal4-Gro, pACTIN-SV-Gal4-MBD and pACTIN-SV-Gal4-MBDΔ were constructed by insertion of the Gal4 DBD into the HindIII/PstI sites of pACTIN-SV followed by insertion of Gro, dMBD-like and dMBD-likeΔ into the EcoRI site of the resulting plasmid. Quantities of individual Gal4 plasmids were varied as described in the figure legends. The total amount of plasmid was normalized to 4 μg by addition of pACTIN-SV vector (Huynh et al. (1999) J. Mol Biol 288:13-20) as carrier. Cells were harvested 12 h after transfection and luciferase assays were performed using an Enhanced Luciferase Assay Kit (Pharmingen) according to the manufacturer's instructions. Where indicated, transfected cells were treated with Trichostatin A (TSA, Wako) for 24 h before harvest. If dMBD-like represses transcription through recruitment of a Drosophila Mi-2 complex, transcriptional repression should be sensitive to inhibitors of histone deacetylases. Accordingly, the effect of Trichostatin-A, a histone deacetylase inhibitor, on dMBD-like-mediated repression was tested.

[2] = test system: G5DE5tkLuc reporter in S2 cells; test: Cotransfection transcription assay, Gal4-tethered repression of luciferase reporter; format: cell-based, Drosophila; conditions: transfection into S2 cells; protein not tethered
Protocol: as §1, with “If dMBD-like represses transcription through recruitment of a Drosophila Mi-2 complex, transcriptional repression should be sensitive to inhibitors of histone deacetylases. Accordingly, the effect of Trichostatin-A, a histone deacetylase inhibitor, on dMBD-like-mediated repression was tested.” left out

[3] = test system: methylated (GAM12) and unmethylated (GAC12) DNA probes; test: Gel mobility-shift assay (solution binding); conditions: GAC12 or GAM12 probe; 50, 75, 150 ng protein
Protocol: (§2) Gel mobility shifts were performed in 10% polyacrylamide gels run in 0.5×TBE buffer (45 mM Tris, pH 8.0, 45 mM boric acid, 1 mM EDTA) using GAC12 or GAM12 double-stranded oligonucleotide probes, essentially as described in Wade et al. (1999) Nature Genet. 23:62-66. One picomole of radiolabelled probe was mixed with purified recombinant protein as indicated in the figure legends in 10 mM Tris HCl pH 8.0, 3 mM MgCl2, 50 mM NaCl, 0.1 mM EDTA, 0.1% NP-40, 2 mM DTT, 5% glycerol and 0.4 mg/ml BSA. The samples were incubated for 30 min at 37° C. 30 pmoles of competitor DNA (GAC12 or GAM12) were used per binding reaction. Gels were scanned on a Phosphormager (Molecular Dynamics). The procedure used for southwestern assays is as described in Wade et al. (1999), supra.
Solution interactions with DNA were also examined using an electrophoretic mobility shift assay (FIG. 1D). […] No interaction was detected under these conditions, even non-specific aggregation.

[4] = test system: methylated (GAM12) and unmethylated (GAC12) DNA probes; test: Southwestern assay with immobilized recombinant protein; format: binding
Protocol: as §2
In Southwestern assays using immobilized protein, neither isoform interacted with the probes, regardless of methylation status (FIG. 1C). Thus, either the proteins fail to bind or they are unable to refold on the membrane surface.

| Molecule | relief of repression by Gal4-Gro [1] | relief of repression mediated by tethered dMBD-like [1] | relief of repression mediated by tethered dMBD-likeΔ [1] | transcriptional repression lacking the Gal4 DBD [2] | binding to DNA in solution (electrophoretic mobility shift) [3] | binding of immobilized protein to DNA probes (Southwestern) [4] |
| --- | --- | --- | --- | --- | --- | --- |
| CC(/C=C/C(=O)NO)=C\[C@@H](C)C(=O)c1ccc(N(C)C)cc1 [Trichostatin-A] | relieves repression | largely relieved | largely relieved |  |  |  |
| B1 |  |  |  | failed to repress transcription |  |  |
| B2 |  |  |  | failed to repress transcription | fails to bind methylated DNA in solution | fails to bind methylated DNA |

Reference: patent publication US6919204B2, “Modulation of gene expression using localization domains” (Sangamo Biosciences, Inc., priority 2000, dated 2005)
